Experimental data from patent US20180230189A1 (INSERM INSTITUT NATIONAL DE LA SANT ET DE LA RECHERCHE …, published 2018).

Biological target: T1, extracellular domain of the recombinant protein NRP-1 from RnD systems (human, UniProt O14786 22-856)
T1 construct: Bought extracellular domain
Experiment: Bio-layer interferometry (BLI), synthetic peptide and recombinant NRP-1 extracellular domain
Description: Ligands preparation: proteins were incubated in a PBS buffer with a 1:3 ratio molar ratio of biotin (biotin-PEG4-NHS from Pierce EZ kit, prepared following the manufacturer's instructions). Free biotin was removed using a desalting column (Pierce). The biotinylated protein (called ligand) was immobilized onto streptavidin biosensor tips and dipped into wells containing the buffer with the analyte of interest (association) or without (dissociation).
From the best consensus mode, peptide sequences SEQ ID NO:3 for leptin and SEQ ID NO:4 for NRP-1 have been identified (FIG. 2). The Leptin (OB) binding domain (SEQ ID:3) to NRP-1 (SEQ ID:2) was validated by BLI using a synthetized peptide (SEQ ID:3) and the extracellular domain of the recombinant protein NRP-1 from RnD systems (FIG. 3).

T1 sequence (O14786 22-856 V179A limits assumed): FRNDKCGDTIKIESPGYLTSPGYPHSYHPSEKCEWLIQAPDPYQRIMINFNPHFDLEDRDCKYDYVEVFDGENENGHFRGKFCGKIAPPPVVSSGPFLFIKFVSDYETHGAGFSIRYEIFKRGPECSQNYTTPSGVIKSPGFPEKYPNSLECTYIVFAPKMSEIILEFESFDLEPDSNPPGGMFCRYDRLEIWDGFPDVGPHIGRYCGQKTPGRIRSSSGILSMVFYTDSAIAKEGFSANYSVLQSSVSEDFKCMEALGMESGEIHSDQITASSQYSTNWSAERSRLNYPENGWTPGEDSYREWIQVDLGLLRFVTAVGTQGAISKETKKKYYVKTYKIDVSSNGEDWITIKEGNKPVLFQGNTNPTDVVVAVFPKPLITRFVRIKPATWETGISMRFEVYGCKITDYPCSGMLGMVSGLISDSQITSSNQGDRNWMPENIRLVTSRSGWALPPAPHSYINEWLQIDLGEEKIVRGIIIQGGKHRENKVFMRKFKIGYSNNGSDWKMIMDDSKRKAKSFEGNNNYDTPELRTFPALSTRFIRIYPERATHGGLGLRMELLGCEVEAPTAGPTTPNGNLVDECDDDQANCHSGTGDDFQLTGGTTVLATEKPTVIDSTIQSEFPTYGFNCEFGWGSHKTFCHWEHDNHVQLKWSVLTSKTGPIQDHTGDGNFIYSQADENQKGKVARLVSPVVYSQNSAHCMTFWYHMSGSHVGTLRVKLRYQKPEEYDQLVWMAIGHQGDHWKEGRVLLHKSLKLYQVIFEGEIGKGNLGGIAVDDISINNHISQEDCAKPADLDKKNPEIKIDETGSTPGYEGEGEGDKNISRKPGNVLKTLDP

binding result: binds
B1: synthetized leptin (OB) peptide SEQ ID NO:3 (peptide)
peptide: ENLRDLLHVLAFSKSCHLPWASGLETL
notes: Synthetic peptide derived from leptin, identified by docking and then tested by BLI
